As usually defined, the Kd is the free concentration of one partner at which half of the binding sites on the other are occupied at equilibrium, for simple one-to-one binding. A lower Kd goes with tighter binding.

These results are taken from patent US20260250420A1 (SICHUAN KELUN BIOTECH BIOPHARMACEUTICAL, published 2026).

The target of assay [1] is T1, human Fc receptor protein CD32a (human, UniProt P12318 34-217, biotinylated).
T1 construct: Biotinylated protein captured on SA sensors
T1 sequence (looked up): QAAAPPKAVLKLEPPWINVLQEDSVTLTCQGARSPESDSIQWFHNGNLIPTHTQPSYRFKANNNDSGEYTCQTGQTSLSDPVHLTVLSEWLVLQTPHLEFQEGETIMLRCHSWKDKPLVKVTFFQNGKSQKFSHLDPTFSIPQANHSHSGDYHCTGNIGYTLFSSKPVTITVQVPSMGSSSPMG
The assay is described as follows: BLI (ForteBio), biotinylated receptor on SA sensor, antibody from 5,000 nM, 1:1 global fit. From the text:
(§1) The dynamic affinity of the antibodies 101A6HZ, 101A6HZm and Hu24 with human Fc receptor proteins CD16a, CD32a, CD32b, CD64 and FcRn was detected through ForteBio (Pall life sciences).
For orientation: BLI is a label-free optical method that tracks binding on a fibre tip over time.

Assay [2] addresses T2, human Fc receptor protein CD64 (human, UniProt P12314 16-292, limits assumed, biotinylated).
T2 construct: Biotinylated protein captured on SA sensors
The description is as above.
Description: as §1

Assay [3] concerns the target T3, human Fc receptor protein CD16a (human, UniProt P08637 17-208, biotinylated).
T3 construct: Biotinylated protein captured on SA sensors
The assay is described as above.
Description: as §1

Assay [4] addresses T4, human Fc receptor protein CD32b (human, UniProt P31994 43-217, biotinylated).
T4 construct: Biotinylated protein captured on SA sensors
T4 sequence (looked up): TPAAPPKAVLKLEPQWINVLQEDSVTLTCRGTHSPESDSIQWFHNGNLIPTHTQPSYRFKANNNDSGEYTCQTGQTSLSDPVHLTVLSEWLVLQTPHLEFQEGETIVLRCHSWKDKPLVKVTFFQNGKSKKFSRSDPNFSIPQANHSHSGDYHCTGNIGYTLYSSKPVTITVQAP
The assay is described as above.
Description: as §1

For assay [5], the target named is T5, human PTK7 on cells (tumor cells endogenously expressing PTK7); CHO-hPTK7, CHO-S-hPTK7 and 293T-hPTK7 … (human, UniProt Q13308 31-1070).
T5 construct: whole, on cells; The cell line of each value is named under assay; also called H1299; H358
T5 sequence (looked up): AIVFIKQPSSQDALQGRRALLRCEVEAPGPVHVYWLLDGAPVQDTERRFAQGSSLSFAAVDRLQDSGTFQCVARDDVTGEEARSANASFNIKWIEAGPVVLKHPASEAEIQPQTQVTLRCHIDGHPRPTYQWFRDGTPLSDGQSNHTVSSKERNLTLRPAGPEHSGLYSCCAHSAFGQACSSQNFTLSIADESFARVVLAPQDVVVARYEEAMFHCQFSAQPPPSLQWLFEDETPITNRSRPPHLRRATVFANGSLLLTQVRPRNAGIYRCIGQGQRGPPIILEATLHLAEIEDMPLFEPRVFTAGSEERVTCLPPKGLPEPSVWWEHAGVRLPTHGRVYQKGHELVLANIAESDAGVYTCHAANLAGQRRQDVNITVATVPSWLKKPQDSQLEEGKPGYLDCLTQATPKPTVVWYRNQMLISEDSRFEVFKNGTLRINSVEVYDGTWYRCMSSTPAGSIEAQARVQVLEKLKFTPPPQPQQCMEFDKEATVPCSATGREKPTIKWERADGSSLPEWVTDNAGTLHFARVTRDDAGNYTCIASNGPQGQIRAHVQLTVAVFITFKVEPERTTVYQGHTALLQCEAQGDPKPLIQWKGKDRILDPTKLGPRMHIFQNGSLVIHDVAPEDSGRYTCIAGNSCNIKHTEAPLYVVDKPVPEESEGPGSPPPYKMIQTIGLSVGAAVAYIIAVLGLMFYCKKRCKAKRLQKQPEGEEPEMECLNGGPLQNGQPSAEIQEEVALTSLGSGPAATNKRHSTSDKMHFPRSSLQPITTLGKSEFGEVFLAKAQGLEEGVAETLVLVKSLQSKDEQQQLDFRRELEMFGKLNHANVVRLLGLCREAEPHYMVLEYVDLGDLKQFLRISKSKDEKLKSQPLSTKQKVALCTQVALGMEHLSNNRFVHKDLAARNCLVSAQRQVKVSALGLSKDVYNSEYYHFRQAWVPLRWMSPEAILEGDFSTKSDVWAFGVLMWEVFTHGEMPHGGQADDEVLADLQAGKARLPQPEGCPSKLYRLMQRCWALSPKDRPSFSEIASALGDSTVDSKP
The assay can be described thus: competition flow cytometry on 293T-hPTK7 cells, streptavidin-PE; competitor: biotin-labelled Hu24.

Assay [6] deals with T6, mouse PTK7 protein (extracellular sequence of mouse PTK7 with C-terminal 6×His tag) (mouse, UniProt Q8BKG3 23-696).
T6 construct: extracellular domain; Expressed transiently in HEK293 cells
T6 sequence: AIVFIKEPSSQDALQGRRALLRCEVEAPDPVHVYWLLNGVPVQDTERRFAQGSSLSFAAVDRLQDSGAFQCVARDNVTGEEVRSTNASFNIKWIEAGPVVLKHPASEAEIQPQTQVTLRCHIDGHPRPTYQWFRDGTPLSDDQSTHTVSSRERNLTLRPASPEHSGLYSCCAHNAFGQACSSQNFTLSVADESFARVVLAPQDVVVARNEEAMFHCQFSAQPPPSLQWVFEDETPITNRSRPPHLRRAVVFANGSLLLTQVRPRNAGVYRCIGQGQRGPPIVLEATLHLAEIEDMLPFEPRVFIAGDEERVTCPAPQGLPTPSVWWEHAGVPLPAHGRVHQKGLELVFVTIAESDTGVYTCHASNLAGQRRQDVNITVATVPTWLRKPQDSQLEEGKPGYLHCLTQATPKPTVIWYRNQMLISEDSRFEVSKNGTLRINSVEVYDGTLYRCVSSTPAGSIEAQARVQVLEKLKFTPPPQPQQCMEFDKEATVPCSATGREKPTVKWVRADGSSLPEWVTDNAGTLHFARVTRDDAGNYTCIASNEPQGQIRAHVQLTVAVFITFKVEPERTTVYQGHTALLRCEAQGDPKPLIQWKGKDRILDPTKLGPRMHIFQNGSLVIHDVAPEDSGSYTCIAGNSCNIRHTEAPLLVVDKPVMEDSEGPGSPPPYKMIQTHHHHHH
The assay can be described thus: ELISA, coated mouse PTK7 protein. On the procedure:
Original data was imported into software for nonlinear curve fitting, and EC₅₀ of binding of each antibody to human PTK7 and monkey PTK7 was calculated, respectively. As shown in Table 1 and FIGS. 1A-1B, the screened antibodies could be bound to the human and monkey PTK7 proteins with affinity higher than that of the control antibody Hu24.
ELISA and ForteBio were adopted to detect binding of the anti-human PTK7 chimeric and humanized antibodies to the monkey, mouse and rat PTK7 proteins.

T2 sequence (P12314 16-292 limits assumed): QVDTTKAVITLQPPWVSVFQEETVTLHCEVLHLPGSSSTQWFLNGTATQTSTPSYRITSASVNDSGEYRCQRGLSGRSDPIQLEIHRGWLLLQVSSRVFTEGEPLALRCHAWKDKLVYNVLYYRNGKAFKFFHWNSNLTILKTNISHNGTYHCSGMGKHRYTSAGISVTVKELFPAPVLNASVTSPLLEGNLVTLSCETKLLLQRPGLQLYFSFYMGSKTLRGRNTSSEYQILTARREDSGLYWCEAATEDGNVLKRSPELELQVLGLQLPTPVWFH
T3 sequence (P08637 17-208 limits assumed): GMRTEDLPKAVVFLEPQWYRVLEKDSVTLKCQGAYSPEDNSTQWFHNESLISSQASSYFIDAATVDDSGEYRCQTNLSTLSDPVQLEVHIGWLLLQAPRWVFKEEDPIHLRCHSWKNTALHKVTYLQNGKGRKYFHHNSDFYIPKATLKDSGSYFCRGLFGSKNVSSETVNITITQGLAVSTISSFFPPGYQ

B1: Hu24 (PTK7 control antibody, taken from Hu24 in the Patent CN201580030255) (antibody)
chain 1: QVQLVQSGPEVKKPGASVKVSCKASGYTFTDYAVHWVRQAPGKRLEWIGVISTYNDYTYNNQDFKGRVTMTRDTSASTAYMELSRLRSEDTAVYYCARGNSYFYALDYWGQGTSVTVSS
chain 2: EIVLTQSPATLSLSPGERATLSCRASESVDSYGKSFMHWYQQKPGQAPRLLIYRASNLESGIPARFSGSGSGTDFTLTISSLEPEDFAVYYCQQSNEDPWTFGGGTKLEIK
As for B1, the Kd was found to be 1.73 µM in assay [1], 0.000465 µM in assay [2], 1.19 µM in assay [3] and 1.76 µM in assay [4]. The “IC50 (read off the curve)” value in assay [5] is ~0.3 µg/mL.

B2: 101A6HZ (anti-human PTK7 humanized antibody) (antibody, human IgG1, kappa)
heavy: not shown
light: DIVMTQSPDSLAVSLGERATINCKASQDVGSAVIWYQQKPGQSPKLLIYWASTRHTGVPDRFSGSGSGTDFTLTISSLQAEDVAVYYCQQYSSYPLTFGQGTKLEIKRTVAAPSVFIFPPSDEQLKSGTASVVCLLNNFYPREAKVQWKVDNALQSGNSQESVTEQDSKDSTYSLSSTLTLSKADYEKHKVYACEVTHQGLSSPVTKSFNRGEC
Take B2: the dissociation constant Kd in assay [1] was 2.27 µM; in assay [2], 0.000508 µM; in assay [3] it was 1.01 µM; in assay [4], 1.78 µM.

B3: 64A10HZ (anti-human PTK7 humanized antibody) (antibody, human IgG1, kappa, V domains shown)
VH: QVQLQESGPGLVKPSETLSLTCTVSGFSLTSYGVYWVRQPPGKGPEWLGVIWTSGNTNYNPSLKSRLTISKDNSKNQVSLKLSSVTAADTAVYYCVKHDGGNYVGVMNYWGQGTLVTVSS
VL: EIVMTQSPDFQSVTPKEKVTITCRASQSISDYLHWYQQKPDQSPKLLIKYASQSISGVPSRFSGSGSGSDFTLTINSLEAEDAATYYCQNGHSFPPTFGQGTKLEIKR
notes: Human IgG1 heavy chain constant region and human Kappa light chain constant region; expressed in CHO-S cells
As to B3, the binding result in assay [6] is reported as “no binding”.
